The series can be described thus: protein stability index of a GFP-peptide fusion (GPS, HEK-293T) (PSI 1-6); higher = more stable. As to conditions: c terminus: a fixed tail appended.

± gives the standard deviation.

This is an account of results in the supplement of paper PMC10567573.
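Further: 24-mer peptide tiles fused after GFP, lentivirally expressed, FACS-sorted into six equal bins by GFP/DsRed ratio, decoded by Illumina sequencing, PSI is the read-weighted mean bin number.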

The sequence GAEPGTYLTGTINGDPESVASLHW [ADAMTS4] registered a protein stability index (treatment: DMSO) of 4.52 ± 0.87 and a protein stability index (treatment: MLN4924 1 uM, 8 h) of 3.67 ± 0.62.
On to GGIRGRAMALTSSMNWGINLLISL [SLC2A12], for which the protein stability index by setting is: (treatment: DMSO) 2.26 ± 0.7; (treatment: MLN4924 1 uM, 8 h) 2.54 ± 0.42.
On the same counts, the results for TKLRLERVKFRRQEANARERNRMH [NEUROD6] are 3.67 ± 0.14 and 3.92 ± 0.4.
As to ESWDEEDKRNYPSLELDKMAHGYG [CHGB], the protein stability index turned out to be 4.87 ± 0.1 (treatment: DMSO) and 4.87 ± 0.14 (treatment: MLN4924 1 uM, 8 h).
Consider SDNMSHLMVDFAQERQMLQALKFL [FSD1], for which the protein stability index runs as follows: (treatment: DMSO) 2.55 ± 0.3; (treatment: MLN4924 1 uM, 8 h) 2.49 ± 0.23.
On the same counts, the results for SHFSRLSEEKLALDNNASASGNAT [C10orf62] are 5.03 ± 0.14 and 5.13 ± 0.26.
As to WASRREAFAQRPSSAPDLMCLSPD [CDC25B], the protein stability index was 3.85 ± 0.21 (treatment: DMSO) and 4.07 ± 0.2 (treatment: MLN4924 1 uM, 8 h).
Turning to EHPPEVSRETQRTPMNHQKAVNDE [FBXO34], the protein stability index was found to be 5.29 ± 0.21 (treatment: DMSO) and 5.41 ± 0.075 (treatment: MLN4924 1 uM, 8 h).
DHGCEQLCLNTEDSFVCQCSEGFL [MATN2]: the protein stability index stood at 4.18 ± 0.21 (treatment: DMSO) and 4.06 ± 0.3 (treatment: MLN4924 1 uM, 8 h).
Take CTLGICGQGLKSYMTKPSKSLLPH [RTP4]: the protein stability index by setting is: (treatment: DMSO) 2.2 ± 0.3; (treatment: MLN4924 1 uM, 8 h) 2.21 ± 0.35.
With KDGMAFQEALDPGPFDQGSPFAQE [ELF3], the protein stability index reads like this: (treatment: DMSO) 4.65 ± 0.69; (treatment: MLN4924 1 uM, 8 h) 4.94 ± 0.12.
The matching figures for PIHTIILNPHVHLVGDDAACIAYI [CAMK2D]: 2 ± 0.45 and 3.12 ± 1.6.
On the same counts, the results for GIVGLNNIKANDYANAVLQALSNV [USP39] are 2.25 ± 0.42 and 2.25 ± 0.45.
LPESLARSLLPSTEYQKQLLAAQV [FBF1]: the protein stability index was found to be 2.75 ± 0.46 (treatment: DMSO) and 2.56 ± 0.26 (treatment: MLN4924 1 uM, 8 h).
In the case of QLVNSSADNMLEYKSWLKNLAKEQ [PPEF2], the protein stability index came to 3.24 ± 0.17 (treatment: DMSO) and 3.77 ± 0.5 (treatment: MLN4924 1 uM, 8 h).
Regarding DREEEAIHHLVLTASDGGDPLRSG [PCDHGA10], the protein stability index by setting is: (treatment: DMSO) 5.02 ± 0.2; (treatment: MLN4924 1 uM, 8 h) 5.08 ± 0.11.
The sequence LPIVKLLAKQPGVSVNAQTLDGRT [RIPK4] returned a protein stability index (treatment: DMSO) of 2.71 ± 0.17 and a protein stability index (treatment: MLN4924 1 uM, 8 h) of 3.13 ± 0.56.
ESFLAWKKRKRQEKIDKLEQDMER [ZC3H15] registered a protein stability index (treatment: DMSO) of 3.8 ± 0.2 and a protein stability index (treatment: MLN4924 1 uM, 8 h) of 4.22 ± 0.33.
Consider FIMLLIGIVLPVFYLVYFKIQASG [LYSMD4], for which the protein stability index runs as follows: (treatment: DMSO) 2.31 ± 0.22; (treatment: MLN4924 1 uM, 8 h) 2.01 ± 0.54.
For the sequence SVLKLHHSLQQSEPDLRHLVLVVN [SERTAD1], the protein stability index by setting is: (treatment: DMSO) 2.46 ± 0.24; (treatment: MLN4924 1 uM, 8 h) 2.04 ± 0.25.
Regarding NDTNSFTVDCEPSDLFRLQEYNIP [CDS2], the protein stability index by setting is: (treatment: DMSO) 3.65 ± 0.16; (treatment: MLN4924 1 uM, 8 h) 3.74 ± 0.21.
Consider EGNALQGPILQKDYVQLENQWETP [ZNF449], for which the protein stability index was 4.86 ± 0.13 (treatment: DMSO) and 4.68 ± 0.23 (treatment: MLN4924 1 uM, 8 h).
Consider CQRERAFSVKFEVQAPRWGNPRAL [OAS1], for which the protein stability index is 2.46 ± 0.12 (treatment: DMSO) and 2.8 ± 0.27 (treatment: MLN4924 1 uM, 8 h).
With KDGNTPLHVAARYGHELLINTLIT [ANKRD44], the protein stability index by setting is: (treatment: DMSO) 2.19 ± 0.15; (treatment: MLN4924 1 uM, 8 h) 2.3 ± 0.46.
AKVDGETASDSESRAESAPLPVSA [CDS2]: the protein stability index is 5.57 ± 0.15 (treatment: DMSO) and 5.5 ± 0.27 (treatment: MLN4924 1 uM, 8 h).
For VEGRKHVDVQTELYLEEIADRIIE [RSPH3], the protein stability index (treatment: DMSO) came out at 2.55 ± 0.33 and the protein stability index (treatment: MLN4924 1 uM, 8 h) turned out to be 2.77 ± 0.41.
On to FEWTDSPNTAVSVHVSESSDDDEE [ACBD3], for which the protein stability index turned out to be 5.53 ± 0.22 (treatment: DMSO) and 5.56 ± 0.21 (treatment: MLN4924 1 uM, 8 h).
With LEETKGRYCMQLSQIQGLIGSVEE [KRT16], the protein stability index was found to be 3.91 ± 0.17 (treatment: DMSO) and 3.91 ± 0.2 (treatment: MLN4924 1 uM, 8 h).
On the same counts, the results for SGTPQAGTPSPSRSRDSNSGPEEP [RTN2] are 5.35 ± 0.068 and 5.48 ± 0.28.
On the same counts, the results for ELAELEDALRNLKCGSGARGGDGE [TRADD] are 4.7 ± 0.39 and 4.66 ± 0.07.
For ALTRLERHLERKAWVANFERPRMN [CRY1], the protein stability index reads like this: (treatment: DMSO) 2.42 ± 0.048; (treatment: MLN4924 1 uM, 8 h) 2.66 ± 0.6.
With ANETYENNFDNLDFDLDLVPWESD [ATF6], the protein stability index was 5.07 ± 0.24 (treatment: DMSO) and 4.82 ± 0.23 (treatment: MLN4924 1 uM, 8 h).
As to DDSGGPTPSSYAPSHPPRPLLPLD [ZBTB22], the protein stability index reads like this: (treatment: DMSO) 4.54 ± 0.25; (treatment: MLN4924 1 uM, 8 h) 4.79 ± 0.22.
As for PQKSLFFHHIPSTCQRVNGIKVQN [SLC19A2], the protein stability index was determined as 2.61 ± 0.17 (treatment: DMSO) and 2.78 ± 0.27 (treatment: MLN4924 1 uM, 8 h).
Regarding QPPPPRRVTNVGSLLLTPQENESL [WASL], the protein stability index by setting is: (treatment: DMSO) 4.73 ± 0.083; (treatment: MLN4924 1 uM, 8 h) 4.66 ± 0.27.
For EGRGPVTPLHLDLTQLHRLSLESS [PLEKHN1], the protein stability index is, setting by setting: (treatment: DMSO) 3.4 ± 0.31; (treatment: MLN4924 1 uM, 8 h) 3.28 ± 0.22.
